Key:
Type in all cases: cell-based, human
[1] = tested on: hCMEC/D3 cells; assay: FAM-Aβ1-42 efflux from hCMEC/D3 cells, flow cytometry; details: hCMEC/D3, 10 min loading with FAM-Aβ1-42, then 20 min in FAM-Aβ1-42-free media, 37 °C, mean of N = 3
Procedure: For efflux studies, hCMEC/D3 cells were initially incubated with FAM-Aβ1-42 for 10 minutes and then the media was removed and replaced with FAM-Aβ1-42 -free media, and further incubated for 10 and 20 minutes, at 37 °C. Finally, cells were analyzed by flow cytometry, as described above.

[2] = tested on: SAHep cells; assay: FAM-Aβ1-42 internalization by SAHep cells, flow cytometry; details: FAM-Aβ1-42, 4.5–7.5 μg/mL of h rTTR, 3 hours, 37 °C, N = 3
Procedure: For the study with hepatocytes, SAHep cells were grown in 6-well plates coated with collagen type I and after 24 hours cells were incubated with FAM-Aβ1-42 in the presence or absence of h rTTR (136 nM) for 3 hours at 37 °C. For primary hepatocytes, after 48 hours of seeding, cells were incubated with FAM-Aβ1-42 (100 nM), with the advantage of no need for TTR addition. For hepatocytes derived from TTR−/− mice, we also examined the effect of h rTTR on FAM-Aβ1-42 internalization. FAM-Aβ1-42 inside SAHep cells and primary hepatocytes was measured by flow cytometry (FACS Canto II, BD Biosciences).

[3] = tested on: hCMEC/D3 cells; assay: FAM-Aβ1-42 uptake by hCMEC/D3 cells, flow cytometry; details: hCMEC/D3, FAM-Aβ1-42 500 ng/mL (100 nM), 37 °C
Procedure: For quantification of Aβ1-42 uptake, hCMEC/D3 cells were plated into a 6-well plate coated with collagen type I and grown to confluence. Cells were washed with PBS and incubated for 5, 10, 15 and 30 minutes at 37 °C, with 500 ng/mL of FAM-Aβ1-42 (100 nM) in presence or absence of h rTTR (7.5 μg/mL, 136 nM). After incubation, cells were washed twice with PBS and enzymatically detached using trypsin (Gibco™), and then resuspended cells were centrifuged at 1000 rpm at RT for 5 minutes. The pellet was washed with PBS and cells recentrifuged as described above. Then the pellet was resuspended with PBS, and if necessary fixed with 4% Paraformaldehyde (PFA). Finally, cells were analyzed in FACS Canto II equipment (BD Biosciences) using Blue laser excitation of 488 nm. The flow cytometry data were analyzed using the Flowjo workstation.

Substance: FAM-Aβ1-42: Aβ1-42 labeled with 5-(and-6)-Carboxyfluorescenin (FAM), purchased from AnaSpec
- FAM-Aβ1-42 efflux, fluorescent cells remaining ([1]; absence of TTR): 67.6%
- FAM-Aβ1-42 efflux, fluorescent cells remaining ([1]; presence of h rTTR): 45.5%
- Uptake of Aβ1-42 peptide by SAHep cells, maximum [2]: 70%
- FAM-Aβ1-42 uptake, fluorescent cells ([3]; 5 min, absence and presence of h rTTR 7.5 μg/mL (136 nM), N = 3): 35–39%
- FAM-Aβ1-42 uptake, fluorescent cells ([3]; 10 min, absence and presence of h rTTR 7.5 μg/mL, difference not significant, N = 3): over 57%
- FAM-Aβ1-42 uptake, fluorescent cells ([3]; 15 min, absence of TTR, mean of N = 3): 61.7%
- FAM-Aβ1-42 uptake, fluorescent cells ([3]; 15 min, presence of h rTTR 7.5 μg/mL (136 nM), mean of N = 3): about 73%
- FAM-Aβ1-42 internalization with versus without TTR ([3]; 30 min, h rTTR 7.5 μg/mL versus none, N = 3): significantly higher in the presence of TTR

Source: article PMC4738280, “Transthyretin participates in beta-amyloid transport from the brain to the liver- involvement of the low-density lipoprotein receptor-related protein 1?” (Scientific Reports, 2016)
